# Assay results as given in US20250340890A1.
# Target: human angiotensin converting enzyme 2 (hACE2) (human) (UniProt Q9BYF1)
Substance,"Absorbance (λ450 nm), after background correction, Average (absorbance units)","Absorbance (λ450 nm), after background correction, Trial 1 (absorbance units)","Absorbance (λ450 nm), after background correction, Trial 2 (absorbance units)","Absorbance (λ450 nm), after background correction, Trial 3 (absorbance units)","Absorbance (λ450 nm), before background correction, Trial 1 (absorbance units)","Absorbance (λ450 nm), before background correction, Trial 2 (absorbance units)","Absorbance (λ450 nm), before background correction, Trial 3 (absorbance units)"
His-tagged Delta variant SARS-CoV-2 S1S2 protein (ligand),0.551,0.538,0.558,0.557,0.578,0.598,0.597
His-tagged Omicron variant SARS-CoV-2 S1S2 protein (ligand),0.489,0.482,0.49,0.494,0.522,0.53,0.534
